Experiments:
somatic soybean embryos = assay: Production of calendic acid in somatic soybean embryos expressing CalFad2-1 or CalFad2-2; assay type: cell-based; details: single somatic embryos
Excerpt: The open-reading frames of these cDNAs were amplified by PCR in order generate the appropriate flanking restriction enzyme sites for cloning into the soybean expression vector. The oligonucleotide primers used for amplification of the CalFad2-1 open-reading frame were: 5′-ttgcggccgc[…]-3′ (sense, SEQ ID NO:18) and 5′-ttgcggccg[…]-3′ (antisense, SEQ ID NO:19). The oligonucleotide primers used for amplification of the CalFad2-2 coding sequence were: 5′-agcggccgcTATACCATGGGCAAG-3′ (sense, SEQ ID NO:20) and 5′-tgcggccgcTATGTTAAACTTC-3′ (antisense, SEQ ID NO:21). [Note: The sequences shown in lower case contain an added NotI site along with additional bases to facilitate restriction enzyme digestion.] The template was the cDNA corresponding to either EST ecs1c.pk009.n14 (CalFad2-1) or EST ecs1c.pk08.a24 (CalFad2-2), and Pfu polymerase (Stratagene) was used for the amplification reactions. The resulting PCR products were subcloned into the intermediate vector pCR-Script AMP SK(+) (Stratagene) according to the manufacturer's protocol. The amplified CalFad2-1 and CalFad2-2 coding sequences were then released with NotI digestion and then subcloned into the corresponding site of the soybean expression vector pKS67.
The PCR amplified coding sequences of CalFad2-1 and CalFa2-2 were fused with the β-conglycinin promoter and phaseolin termination sequences in vector pKS67 was transformed into somatic soybean embryos as follows. To induce somatic embryos, cotyledons, 3-5 mm in length dissected from surface sterilized, immature seeds of a soybean cultivar A2872 or JACK-910 were cultured in the light or dark at 26° C. on an appropriate agar medium for 6-10 weeks. Somatic embryos that produce secondary embryos were then excised and placed into a suitable liquid medium. After repeated selection for clusters of somatic embryos that multiplied as early, globular staged embryos, the suspensions were maintained as described below.
Soybean embryogenic suspension cultures were maintained in 35 mL liquid media on a rotary shaker, 150 rpm, at 26° C. with florescent lights on a 16:8 hour day/night schedule. Cultures were subcultured every two weeks by inoculating approximately 35 mg of tissue into 35 mL of liquid medium.
Soybean embryogenic suspension cultures were then transformed with the vector pKS67 containing the coding sequence for CalFad2-1 and CalFad2-2 by the method of particle gun bombardment (Klein et al. (1987) Nature (London) 327:70, U.S. Pat. No. 4,945,050). A Du Pont Biolisticä PDS1000/HE instrument (helium retrofit) was used for these transformations.
To […] of a 60 mg/mL […] gold particle suspension were added (in order): 5 mL DNA (1 mg/mL), 20 ml spermidine (0.1 M), and […] CaCl2 (2.5 M). The particle preparation was then agitated for three minutes, spun in a microfuge for 10 seconds and the supernatant removed. The DNA-coated particles were then washed once in 400 mL 70% ethanol and resuspended in 40 mL of anhydrous ethanol. The DNA/particle suspension was sonicated three times for one second each. Five mL of the DNA-coated gold particles was then loaded on each macro carrier disk.
Approximately 300-400 mg of a two-week-old suspension culture was placed in an empty 60×15-mm petri dish and the residual liquid removed from the tissue with a pipette. For each transformation experiment, approximately 5 to 10 plates of tissue were bombarded. Membrane rupture pressure was set at 1100 psi and the chamber was evacuated to a vacuum of 28 inches mercury. The tissue was placed approximately 3.5 inches away from the retaining screen and bombarded three times. Following bombardment, the tissue was divided in half and placed back into liquid and cultured as described above.
Five to seven days post bombardment, the liquid media was exchanged with fresh media, and eleven to twelve days post bombardment with fresh media containing […] hygromycin. This selective media was refreshed weekly. […]

[1] = system: Saccharomyces cerevisiae INVSc1 cells; assay: Expression of CalFad2-1 and CalFad2-2 in Saccharomyces cerevisiae; assay type: cell-based; details: cells grown in media containing 2 mM linoleic acid, 4 days at 16° C.; (w/w) of total fatty acids
Excerpt: The Calendula officinalis clones CalFad2-1 and CalFad2-2 were digested with the restriction enzymes EcoRI and XhoI. The resulting DNA fragments containing the entire cDNA inserts were purified by agarose gel electrophoresis. The purified cDNAs were ligated into the EcoRI and XhoI sites of the Saccharomyces cerevisiae expression vector pYES2 (Invitrogen) using T4 DNA ligase (New England Biolabs). The resulting plasmids pYes2/CalFad2-1 and pYes2/CalFad2-2 were introduced into Saccharomyces cerevisiae INVSc1 (Invitrogen Corp.) cells by lithium acetate-mediated transformation [Sherman F, Fink G R, Hicks J B, Methods in Yeast Genetics: A Laboratory Course Manual, Cold Spring Harbor Lab. Press, Plainview, N.Y. (1987)]. Transformed cells were selected for their ability to grow in the absence of uracil. […] In cells grown in media containing linoleic acid, calendic acid (18:3Δ^8trans,10trans,12cis) was detected in amounts of up to 2.9% (w/w) of the total fatty acids of cultures expressing CalFad2-1 (FIG. 3) and in amounts of up to 0.2% of the total fatty acids of cultures expressing CalFad2-2. […] No calendic acid was detected in cultures harboring the expression vector without a cDNA insert or in cells grown in the absence of exogenous linoleic acid. […]

[2] = n = 5, ± standard deviation, weight % of total fatty acids

B1: CalFad2-1: Calendula officinalis fatty acid modifying enzyme (cDNA SEQ ID NO:1, protein SEQ ID NO:2) forming conjugated double bonds at delta-9 position (protein, listed as Calendula officinalis)
chain: MGKGASNKKVLERVPITKPPFEYNDLKKAVPPHCFSRPLFRSFYFLLHDIIVTCILFYVASNYIPMLPGFLSYIVWPVYWISQGVFLGRLWMIGHECGHHSFSNYRWVDDSVGFLIHTATLTPYFSFKYSHRNHHAHTNSMEYDEVHIPKRKSEALDLYFEFLGNNPMGLMITMLCKLTFGYAAYIMFNYTGKKHKSGGLASHFYPQSPLFNDSERNHVLFSDVGICIVLYACYRIVMVTGAMSAFYVYGIPWVIMSAILFAATYLQHTHPSIPHYDTTEWNWLRGALSTIDRDLGFFNMNKTHYHVIHHLFPVIPEYHAQEATEAIKPILGQYYKYDGTPFLKALWREMKDCIYVESDQGQKKQGIYWFKNKI
- Other, Fatty Acid Weight % (somatic soybean embryos; n = 5, weight % of total fatty acids): ≦1.3 Weight %
- 16:0, Fatty Acid Weight % (somatic soybean embryos; [2]): 12.2 ± 1.0 Weight %
- 18:0, Fatty Acid Weight % (somatic soybean embryos; [2]): 3.5 ± 0.9 Weight %
- 18:1, Fatty Acid Weight % (somatic soybean embryos; [2]): 9.0 ± 1.5 Weight %
- 18:2, Fatty Acid Weight % (somatic soybean embryos; [2]): 52.2 ± 2.4 Weight %
- 18:3, Fatty Acid Weight % (somatic soybean embryos; [2]): 18.8 ± 3.0 Weight %
- Calendic Acid, Fatty Acid Weight % (somatic soybean embryos; [2]): 3.1 ± 1.0 Weight %
- calendic acid (18:3Δ8trans,10trans,12cis), amount of the total fatty acids [1]: up to 2.9%
